Here are results for eleven molecules from US8754193 (dated 2014).

A value given as a limit tells only on which side of the number the result lay.

Experiment [1] concerns the target T1, TrkB (human, UniProt Q16620). Put plainly: yeast.
For the next experiment, the target named is GAPDH (human, UniProt P04406). Kind of experiment: yeast.
Experiment [2] deals with T1, TrkB. Put plainly: yeast. The source holds these as a separate data set.
A further experiment concerns the target Streptavidin-PE (Streptomyces avidinii, UniProt P22629). Kind of experiment: yeast.
In experiment [3] the target is T1, TrkB. Kind of experiment: FACS, soluble GFAb on TrkB-loaded beads. A general note: In flow cytometry, cells or beads pass a laser one at a time.
For the next experiment, the target named is T2, TrkA/Fc (human, UniProt P04629).
T2 chain: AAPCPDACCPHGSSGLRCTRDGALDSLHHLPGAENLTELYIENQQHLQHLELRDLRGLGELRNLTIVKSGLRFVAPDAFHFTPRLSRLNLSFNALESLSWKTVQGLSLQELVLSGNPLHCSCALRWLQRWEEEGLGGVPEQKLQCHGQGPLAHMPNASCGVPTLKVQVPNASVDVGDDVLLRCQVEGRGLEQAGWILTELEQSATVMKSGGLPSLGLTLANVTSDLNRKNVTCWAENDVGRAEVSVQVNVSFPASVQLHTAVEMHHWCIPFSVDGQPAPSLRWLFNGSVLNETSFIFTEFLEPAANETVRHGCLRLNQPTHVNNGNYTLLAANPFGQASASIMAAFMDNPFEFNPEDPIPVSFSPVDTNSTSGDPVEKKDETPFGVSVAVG
Put plainly: yeast.

For the next experiment, the target named is TrkC/Fc (human, UniProt Q16288). Put plainly: yeast.
Experiment [4] concerns the target T1, TrkB. Kind of experiment: yeast. The source holds these as a separate data set.
In experiment [5] the target is T1, TrkB. Kind of experiment: competition, solution phase.

T1 sequence (Q16620 32-430): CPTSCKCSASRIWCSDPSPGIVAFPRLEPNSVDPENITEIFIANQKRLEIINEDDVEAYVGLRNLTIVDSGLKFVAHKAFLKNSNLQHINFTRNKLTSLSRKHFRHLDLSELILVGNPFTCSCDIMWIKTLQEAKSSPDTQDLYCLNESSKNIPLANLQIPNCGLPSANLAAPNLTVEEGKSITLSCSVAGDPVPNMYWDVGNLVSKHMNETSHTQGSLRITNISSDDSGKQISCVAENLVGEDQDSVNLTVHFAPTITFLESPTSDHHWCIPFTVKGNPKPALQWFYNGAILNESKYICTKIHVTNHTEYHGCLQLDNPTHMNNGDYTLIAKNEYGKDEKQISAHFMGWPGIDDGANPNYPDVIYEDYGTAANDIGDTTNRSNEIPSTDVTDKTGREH
Streptavidin-PE, sequence (P22629 37-163): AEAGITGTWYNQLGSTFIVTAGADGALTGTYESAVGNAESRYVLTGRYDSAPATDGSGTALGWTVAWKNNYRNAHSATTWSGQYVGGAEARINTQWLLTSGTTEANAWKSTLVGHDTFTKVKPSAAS
GAPDH, sequence (P04406 2-335): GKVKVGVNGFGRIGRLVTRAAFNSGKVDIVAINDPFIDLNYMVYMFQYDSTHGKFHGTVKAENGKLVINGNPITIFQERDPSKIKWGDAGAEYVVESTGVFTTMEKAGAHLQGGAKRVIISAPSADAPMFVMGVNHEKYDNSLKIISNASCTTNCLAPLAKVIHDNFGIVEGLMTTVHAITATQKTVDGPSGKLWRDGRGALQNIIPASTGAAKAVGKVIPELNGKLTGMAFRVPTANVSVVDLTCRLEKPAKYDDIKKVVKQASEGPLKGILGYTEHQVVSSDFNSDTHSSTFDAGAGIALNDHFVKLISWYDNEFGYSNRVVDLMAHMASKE
TrkC/Fc, sequence (Q16288 32-429): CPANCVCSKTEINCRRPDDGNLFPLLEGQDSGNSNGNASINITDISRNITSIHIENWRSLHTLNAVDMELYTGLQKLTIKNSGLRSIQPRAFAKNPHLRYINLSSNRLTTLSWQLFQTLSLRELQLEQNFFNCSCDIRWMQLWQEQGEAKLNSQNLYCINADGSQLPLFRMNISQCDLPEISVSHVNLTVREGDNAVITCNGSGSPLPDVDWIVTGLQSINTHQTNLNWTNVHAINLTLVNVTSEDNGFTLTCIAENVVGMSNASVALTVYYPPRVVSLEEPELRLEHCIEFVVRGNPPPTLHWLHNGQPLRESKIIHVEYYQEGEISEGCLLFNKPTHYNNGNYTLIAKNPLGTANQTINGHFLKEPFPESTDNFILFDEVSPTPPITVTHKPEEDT

B1: T3 102-103 loop only (designed binder)
chain 1: not shown
chain 2: VINPFTVRS
chain 3: SRERDYRLDYTR
For the molecule B1, in the experiment with TrkB [1], the affinity, expressed as Kd, was 19 nM.

B2: T3 172-173 loop only (designed binder)
chain 1: not shown
chain 2: LKQHFWSTPRTTS
chain 3: NAWVVHRR
In the case of B2, in the experiment with TrkB [1], the affinity, expressed as Kd, was 300 nM.

B3: GFAb G7 (designed binder)
chain 1: not shown
chain 2: NVIYPFLYA
chain 3: RVTKTKHK
As to B3, in the experiment with GAPDH, the Kd is > 500 nM.

B4: GFAb G6 (designed binder)
chain 1: not shown
chain 2: RVSRFLLTT
chain 3: KSRIISSQ
In the experiment with GAPDH, B4 came in with a Kd of 18 nM.

B5: GFAb G4 (designed binder)
chain 1: not shown
chain 2: RGVSKSFLL
chain 3: QGITKGYK
Turning to B5, the Kd in the experiment with GAPDH is > 500 nM.

B6: 20-5-8 scaffold (designed binder)
chain 1: not shown
chain 2: LKQHFWSTPRTTS
chain 3: SRERDYRLDYTR
In the case of B6, the binding result in the experiment with TrkB [2] is on record as “no binding”.

B7: GFAb 2.7 (designed binder)
chain 1: not shown
chain 2: VFSSLRYHV
chain 3: LRMDDTNP
modifications: conjugate with phycoerythrin
In the experiment with Streptavidin-PE, B7 gave a Kd of 140 nM.

B8: GFAb 2.17 (designed binder)
chain 1: not shown
chain 2: KARMRLFLM
chain 3: EYGDTLLS
modifications: conjugate with phycoerythrin
As to B8, the affinity with Streptavidin-PE, expressed as Kd, was 110 nM.

B9: GFAb G8 (designed binder)
chain 1: not shown
chain 2: SHCLFRKCY
chain 3: ARSIRMKV
For B9, the Kd with GAPDH was > 500 nM.

B10: GFAb 1.3 (designed binder)
chain 1: not shown
chain 2: AISRSFFST
chain 3: IRNLKYTN
modifications: conjugate with phycoerythrin
The molecule B10 registered a dissociation constant Kd with Streptavidin-PE of 70 nM.

B11: GFAb T3 (designed binder)
chain 1: not shown
chain 2: VINPFTVRS
chain 3: NAWVVHRR
As to B11, the Kd was 2 nM with TrkB [1], 34 nM in the experiment with TrkB [3], 3.2 nM in the experiment with TrkB [4] and ~10 nM in the experiment with TrkB [5]. The binding result with TrkA/Fc and with TrkC/Fc was “no binding” throughout.

One may read the Kd as the constant that tells how readily two partners part at equilibrium.
